In IntAct's records for PubMed 21960005:

B1: Ran-binding protein 3 (Homo sapiens), Q9H6Z4 (parent)
chain: MADLANEEKPAIAPPVFVFQKDKGQKSPAEQKNLSDSGEEPRGEAEAPHHGTGHPESAGEHALEPPAPAGASASTPPPPAPEAQLPPFPRELAGRSAGGSSPEGGEDSDREDGNYCPPVKRERTSSLTQFPPSQSEERSSGFRLKPPTLIHGQAPSAGLPSQKPKEQQRSVLRPAVLQAPQPKALSQTVPSSGTNGVSLPADCTGAVPAASPDTAAWRSPSEAADEVCALEEKEPQKNESSNASEEEACEKKDPATQQAFVFGQNLRDRVKLINESVDEADMENAGHPSADTPTATNYFLQYISSSLENSTNSADASSNKFVFGQNMSERVLSPPKLNEVSSDANRENAAAESGSESSSQEATPEKESLAESAAAYTKATARKCLLEKVEVITGEEAESNVLQMQCKLFVFDKTSQSWVERGRGLLRLNDMASTDDGTLQSRLVMRTQGSLRLILNTKLWAQMQIDKASEKSIRITAMDTEDQGVKVFLISASSKDTGQLYAALHHRILALRSRVEQEQEAKMPAPEPGAAPSNEEDDSDDDDVLAPSGATAAGAGDEGDGQTTGST
B2: Ran-binding protein 3 (Homo sapiens), Q9H6Z4 (parent)
chain: B1 chain
partner: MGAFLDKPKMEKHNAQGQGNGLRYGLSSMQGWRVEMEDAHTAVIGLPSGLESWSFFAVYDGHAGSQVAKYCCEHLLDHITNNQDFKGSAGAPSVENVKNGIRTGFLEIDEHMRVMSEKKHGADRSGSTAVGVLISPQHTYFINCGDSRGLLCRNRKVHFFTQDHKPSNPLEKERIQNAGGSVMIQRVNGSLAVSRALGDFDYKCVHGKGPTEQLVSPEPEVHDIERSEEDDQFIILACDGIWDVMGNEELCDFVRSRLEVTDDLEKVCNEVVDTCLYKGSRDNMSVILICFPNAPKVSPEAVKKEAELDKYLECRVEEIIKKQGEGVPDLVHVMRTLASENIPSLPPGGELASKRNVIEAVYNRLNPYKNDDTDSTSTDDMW

Variants of: B1
Conditions: with smad2_human SMAD2, Q15796
Chain of smad2_human SMAD2, Q15796 (Q15796 whole entry): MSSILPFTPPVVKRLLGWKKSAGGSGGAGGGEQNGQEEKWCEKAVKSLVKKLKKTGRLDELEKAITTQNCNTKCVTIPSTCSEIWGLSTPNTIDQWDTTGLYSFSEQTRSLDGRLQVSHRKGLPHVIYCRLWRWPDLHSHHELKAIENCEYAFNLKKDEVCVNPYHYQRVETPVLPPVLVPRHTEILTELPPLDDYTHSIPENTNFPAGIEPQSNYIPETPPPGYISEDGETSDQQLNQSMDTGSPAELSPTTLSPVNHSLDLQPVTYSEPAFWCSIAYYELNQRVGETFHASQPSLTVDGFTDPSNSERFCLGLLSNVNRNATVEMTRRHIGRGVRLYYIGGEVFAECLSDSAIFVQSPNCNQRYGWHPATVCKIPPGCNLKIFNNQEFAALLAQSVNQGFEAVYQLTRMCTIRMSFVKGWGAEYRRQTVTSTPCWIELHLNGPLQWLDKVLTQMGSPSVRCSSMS

Variant | effect of a mutation on the interaction
S57D | decreasing interaction

Variants of: B2
Conditions: with ppm1a_human PPM1A

Variant | effect of a mutation on the interaction
S57A | decreasing interaction

Variants of: B2
Conditions: with ppm1a_human PPM1A
Remark: another data set of the same source

Variant | effect of a mutation on the interaction
S57D | increasing interaction
